Several values for one entry are separate records, joined by “and”; a condition that tells them apart may be missing. Equal entries are not always repeated.
Tests used:
Experiment in all cases: cell-based or functional assay
[1] = biological target: CD33 on MOLM14 cells (human) (UniProt P20138)
[2] = biological target: anti-FITC CAR (FITC-E2 scFv, CD8 hinge and transmembrane region, 41BB and CD3 zeta) on human T cells
CD19 (human) = CD19 (human) (UniProt P15391)
[3] = biological target: CD19 on NALM-6 (CD19+) cells (human) (UniProt P15391)
Chain of CD19 on NALM-6 (CD19+) cells (human) (P15391 20-556): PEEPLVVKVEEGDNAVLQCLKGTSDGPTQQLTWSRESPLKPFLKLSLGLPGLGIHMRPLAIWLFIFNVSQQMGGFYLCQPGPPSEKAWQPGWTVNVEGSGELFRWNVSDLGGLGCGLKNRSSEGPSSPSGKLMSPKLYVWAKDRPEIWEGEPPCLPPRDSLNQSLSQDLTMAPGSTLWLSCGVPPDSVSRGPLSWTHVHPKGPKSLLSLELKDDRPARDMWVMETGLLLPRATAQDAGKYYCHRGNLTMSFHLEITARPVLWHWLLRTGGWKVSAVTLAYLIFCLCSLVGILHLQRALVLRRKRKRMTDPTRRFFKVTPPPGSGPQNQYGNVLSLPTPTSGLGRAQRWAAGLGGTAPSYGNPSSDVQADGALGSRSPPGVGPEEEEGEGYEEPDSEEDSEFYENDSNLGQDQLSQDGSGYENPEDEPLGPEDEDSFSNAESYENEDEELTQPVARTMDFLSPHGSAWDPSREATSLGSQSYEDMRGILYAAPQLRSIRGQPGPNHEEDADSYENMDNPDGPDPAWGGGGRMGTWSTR

[4] = biological target: anti-FITC CAR with the 4-4-20 scFv (LV-EF1a-4-4-20-BBZ), on transduced human T cells
[5] = biological target: anti-FITC CAR with the 4M5.3 scFv (LV-EF1a-4M5.3-BBZ), on transduced human T cells
[6] = biological target: anti-FITC CAR with the fully human FITC-E2 scFv (CD8 hinge, 41BB, CD3 zeta), on transduced human T cells
Chain of anti-FITC CAR with the fully human FITC-E2 scFv (CD8 hinge, 41BB, CD3 zeta), on transduced human T cells (chain, as listed by the source limits assumed): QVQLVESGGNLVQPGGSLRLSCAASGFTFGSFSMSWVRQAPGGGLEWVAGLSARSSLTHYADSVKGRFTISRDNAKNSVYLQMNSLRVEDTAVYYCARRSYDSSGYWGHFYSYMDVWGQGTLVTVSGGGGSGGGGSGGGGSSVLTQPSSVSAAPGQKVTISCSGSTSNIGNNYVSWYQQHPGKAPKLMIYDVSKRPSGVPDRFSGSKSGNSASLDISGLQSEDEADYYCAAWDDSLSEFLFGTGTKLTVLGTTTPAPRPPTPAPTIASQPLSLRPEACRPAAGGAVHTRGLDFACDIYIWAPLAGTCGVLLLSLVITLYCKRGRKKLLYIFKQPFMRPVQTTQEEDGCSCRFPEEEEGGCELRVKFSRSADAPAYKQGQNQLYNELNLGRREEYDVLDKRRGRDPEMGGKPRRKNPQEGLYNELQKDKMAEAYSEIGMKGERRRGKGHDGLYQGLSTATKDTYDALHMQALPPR

[7] = biological target: anti-FITC CAR with the 4D5Flu scFv (LV-EF1a-4D5Flu-BBZ), on transduced human T cells

Chain of CD19 (human) (P15391 20-556): as the sequence (P15391 20-556) above
Chain of CD33 on MOLM14 cells (human) (P20138 18-364): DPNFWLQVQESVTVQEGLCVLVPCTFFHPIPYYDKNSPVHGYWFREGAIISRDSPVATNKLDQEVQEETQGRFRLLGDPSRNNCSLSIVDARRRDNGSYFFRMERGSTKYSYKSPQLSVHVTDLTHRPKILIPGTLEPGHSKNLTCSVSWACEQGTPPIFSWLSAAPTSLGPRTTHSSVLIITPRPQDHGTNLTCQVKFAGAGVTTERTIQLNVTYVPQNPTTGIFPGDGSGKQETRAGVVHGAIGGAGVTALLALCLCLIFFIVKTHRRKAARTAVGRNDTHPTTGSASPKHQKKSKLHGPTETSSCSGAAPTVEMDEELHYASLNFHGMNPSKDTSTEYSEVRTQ

## anti-CD33 hM195 CD-FITC switch (light chain T113 and heavy chain A117) (Fab)
[1]
  EC50 of cytotoxicity of anti-FITC CAR-T cells against MOLM14 cells: 18.5 pM

## non-conjugated anti-CD19 Fab (clone FMC63)
[2]
  % cytotoxicity at 0.0001 pM; anti-FITC CAR-T; FIG. 72A: 1.78%
  % cytotoxicity at 0.0001 pM; anti-FITC CAR-T; FIG. 72C: 1.12%
  % cytotoxicity at 0.001 pM; anti-FITC CAR-T; FIG. 72A: 0.731%
  % cytotoxicity at 0.001 pM; anti-FITC CAR-T; FIG. 72B: 2.73%
  % cytotoxicity at 0.001 pM; anti-FITC CAR-T; FIG. 72C: 5.24%
  % cytotoxicity at 0.01 pM; anti-FITC CAR-T; FIG. 72A: 8.15%
  % cytotoxicity at 0.01 pM; anti-FITC CAR-T; FIG. 72B: 2.04%
  % cytotoxicity at 0.1 pM; anti-FITC CAR-T; FIG. 72A: 1.96%
  % cytotoxicity at 0.1 pM; anti-FITC CAR-T; FIG. 72C: 2.66%
  % cytotoxicity at 1 pM; anti-FITC CAR-T; FIG. 72A: 4.93%
  % cytotoxicity at 1 pM; anti-FITC CAR-T; FIG. 72B: 3.84%
  % cytotoxicity at 1 pM; anti-FITC CAR-T; FIG. 72C: 1.99%
  % cytotoxicity at 10 pM; anti-FITC CAR-T; FIG. 72A: 3.73% and 2.56%
  % cytotoxicity at 10 pM; anti-FITC CAR-T; FIG. 72B: 4.56% and 2.09%
  % cytotoxicity at 10 pM; anti-FITC CAR-T; FIG. 72C: 1.85% and 9.94%
  % cytotoxicity at 100 pM; anti-FITC CAR-T; FIG. 72A: 4.61% and 8.92%
  % cytotoxicity at 100 pM; anti-FITC CAR-T; FIG. 72B: 3.24% and 1.4%
  % cytotoxicity at 100 pM; anti-FITC CAR-T; FIG. 72C: 4.45% and 12.1%
  % cytotoxicity at 1000 pM; anti-FITC CAR-T; FIG. 72B: 10.5% and 2.6%
  % cytotoxicity at 1000 pM; anti-FITC CAR-T; FIG. 72C: 2.18% and 5.61%
  % cytotoxicity at 10000 pM; anti-FITC CAR-T; FIG. 72A: 11.7% and 1.87%
  % cytotoxicity at 10000 pM; anti-FITC CAR-T; FIG. 72B: 2.58%
  % cytotoxicity at 10000 pM; anti-FITC CAR-T; FIG. 72C: 1.37% and 1.83%

## CART-19: second generation CD19 specific CAR with anti-CD19 scFv (clone FMC63), 41BB and CD3zeta, on human T cells
CD19 (human)
  Human IFN-g, CART19 + Nalm-6: 915 and 924 and 951
  target cell lysis, CART19 + Nalm-6, E:T 0.04:1: 12.6 and 13
  target cell lysis, CART19 + Nalm-6, E:T 0.2:1: 21.7 and 24.5
  target cell lysis, CART19 + Nalm-6, E:T printed as 1:01: 52 and 48
  target cell lysis, CART19 + Nalm-6, E:T printed as 5:01: 75.2 and 73.3
  target cell lysis, CART19 + Nalm-6, E:T printed as 15:01: 87.3 and 88.3

## isotype control (Millipore) (antibody)
[3]
  % cytotoxicity, anti-FITC CAR-T + NALM-6 + 10 pM AB-FITC, with 0 pM isotype (IgG): 54.6% and 51.4%
  % cytotoxicity, anti-FITC CAR-T + NALM-6 + 10 pM AB-FITC, with 1 pM isotype (IgG): 48.3% and 48.2%
  % cytotoxicity, anti-FITC CAR-T + NALM-6 + 10 pM AB-FITC, with 10 pM isotype (IgG): 49.6% and 49.9%
  % cytotoxicity, anti-FITC CAR-T + NALM-6 + 10 pM AB-FITC, with 100 pM isotype (IgG): 50% and 44.7%
  % cytotoxicity, anti-FITC CAR-T + NALM-6 + 10 pM AB-FITC, with 1000 pM isotype (IgG): 45.7% and 41.6%
  % cytotoxicity, anti-FITC CAR-T + NALM-6 + 10 pM AB-FITC, with 10000 pM isotype (IgG): 44.4% and 43%

## anti-CD19 AB-FITC switch (anti-human CD19 Fab, clone FMC63, FITC conjugated at light chain glycine 68 and heavy chain serine 74)
[4]
  % cytotoxicity of CD19+ target cells, FIG. 68A, switch at 0.01 pM: 0.526%
  % cytotoxicity of CD19+ target cells, FIG. 68A, switch at 0.1 pM: 32.8% and 33.3%
  % cytotoxicity of CD19+ target cells, FIG. 68A, switch at 1 pM: 52.3%
  % cytotoxicity of CD19+ target cells, FIG. 68A, switch at 10 pM: 64.9% and 66.1%
  % cytotoxicity of CD19+ target cells, FIG. 68A, switch at 100 pM: 71.7% and 65.6%
  % cytotoxicity of CD19+ target cells, FIG. 68A, switch at 1000 pM: 67.8%
  % cytotoxicity of CD19+ target cells, FIG. 68A, switch at 10000 pM: 74.1% and 71.5%
  % cytotoxicity of CD19+ target cells, FIG. 68A, switch at 1.00E-03 pM: 4.97%
  % cytotoxicity of CD19+ target cells, FIG. 68B, switch at 0.1 pM: 14.8% and 10.9%
  % cytotoxicity of CD19+ target cells, FIG. 68B, switch at 1 pM: 36.7% and 37.8%
  % cytotoxicity of CD19+ target cells, FIG. 68B, switch at 10 pM: 59% and 46.7%
  % cytotoxicity of CD19+ target cells, FIG. 68B, switch at 100 pM: 57.9%
  % cytotoxicity of CD19+ target cells, FIG. 68B, switch at 1000 pM: 55.8%
  % cytotoxicity of CD19+ target cells, FIG. 68B, switch at 10000 pM: 68.6%
[5]
  % cytotoxicity of CD19+ target cells, FIG. 68A, switch at 0.01 pM: 21%
  % cytotoxicity of CD19+ target cells, FIG. 68A, switch at 0.1 pM: 46.4% and 33.9%
  % cytotoxicity of CD19+ target cells, FIG. 68A, switch at 1 pM: 58.2% and 56.6%
  % cytotoxicity of CD19+ target cells, FIG. 68A, switch at 10 pM: 58.9% and 48.9%
  % cytotoxicity of CD19+ target cells, FIG. 68A, switch at 100 pM: 70.5% and 71.3%
  % cytotoxicity of CD19+ target cells, FIG. 68A, switch at 1000 pM: 83.2%
  % cytotoxicity of CD19+ target cells, FIG. 68A, switch at 10000 pM: 85.7% and 72%
  % cytotoxicity of CD19+ target cells, FIG. 68B, switch at 0.0001 pM: 2%
  % cytotoxicity of CD19+ target cells, FIG. 68B, switch at 0.001 pM: 9.17%
  % cytotoxicity of CD19+ target cells, FIG. 68B, switch at 0.01 pM: 1.15%
  % cytotoxicity of CD19+ target cells, FIG. 68B, switch at 0.1 pM: 25.4%
  % cytotoxicity of CD19+ target cells, FIG. 68B, switch at 1 pM: 28.5% and 27.5%
  % cytotoxicity of CD19+ target cells, FIG. 68B, switch at 10 pM: 58.4%
  % cytotoxicity of CD19+ target cells, FIG. 68B, switch at 100 pM: 60.8% and 65.8%
  % cytotoxicity of CD19+ target cells, FIG. 68B, switch at 1000 pM: 73.4% and 71.5%
  % cytotoxicity of CD19+ target cells, FIG. 68B, switch at 10000 pM: 64.2% and 55.2%
[6]
  % cytotoxicity of CD19+ target cells, FIG. 68A, switch at 0.01 pM: 26.7% and 38.4%
  % cytotoxicity of CD19+ target cells, FIG. 68A, switch at 0.1 pM: 49% and 60.5%
  % cytotoxicity of CD19+ target cells, FIG. 68A, switch at 1 pM: 51% and 75.3%
  % cytotoxicity of CD19+ target cells, FIG. 68A, switch at 10 pM: 62.1% and 75.5%
  % cytotoxicity of CD19+ target cells, FIG. 68A, switch at 100 pM: 69.6% and 80.5%
  % cytotoxicity of CD19+ target cells, FIG. 68A, switch at 1000 pM: 80.6% and 99.8%
  % cytotoxicity of CD19+ target cells, FIG. 68A, switch at 10000 pM: 93.1% and 100%
  % cytotoxicity of CD19+ target cells, FIG. 68A, switch at 1.00E-03 pM: 10.3% and 25.2%
  % cytotoxicity of CD19+ target cells, FIG. 68B, switch at 0.0001 pM: 3.26% and 17%
  % cytotoxicity of CD19+ target cells, FIG. 68B, switch at 0.001 pM: 19.6%
  % cytotoxicity of CD19+ target cells, FIG. 68B, switch at 0.01 pM: 17.4%
  % cytotoxicity of CD19+ target cells, FIG. 68B, switch at 0.1 pM: 15%
  % cytotoxicity of CD19+ target cells, FIG. 68B, switch at 1 pM: 47.4% and 43.2%
  % cytotoxicity of CD19+ target cells, FIG. 68B, switch at 10 pM: 64.6% and 70.1%
  % cytotoxicity of CD19+ target cells, FIG. 68B, switch at 100 pM: 60.7% and 67.6%
  % cytotoxicity of CD19+ target cells, FIG. 68B, switch at 1000 pM: 70.4%
  % cytotoxicity of CD19+ target cells, FIG. 68B, switch at 10000 pM: 72.7% and 75.4%
[7]
  % cytotoxicity of CD19+ target cells, FIG. 68A, switch at 0.01 pM: 24% and 29.5%
  % cytotoxicity of CD19+ target cells, FIG. 68A, switch at 0.1 pM: 39.3% and 45.7%
  % cytotoxicity of CD19+ target cells, FIG. 68A, switch at 1 pM: 60.1%
  % cytotoxicity of CD19+ target cells, FIG. 68A, switch at 10 pM: 56.1% and 67.7%
  % cytotoxicity of CD19+ target cells, FIG. 68A, switch at 100 pM: 74.3% and 69.3%
  % cytotoxicity of CD19+ target cells, FIG. 68A, switch at 1000 pM: 84.8%
  % cytotoxicity of CD19+ target cells, FIG. 68A, switch at 10000 pM: 73.6% and 76.9%
  % cytotoxicity of CD19+ target cells, FIG. 68A, switch at 1.00E-04 pM: 6.29%
  % cytotoxicity of CD19+ target cells, FIG. 68B, switch at 0.01 pM: 1.9% and 8.37%
  % cytotoxicity of CD19+ target cells, FIG. 68B, switch at 0.1 pM: 10.9% and 10.4%
  % cytotoxicity of CD19+ target cells, FIG. 68B, switch at 1 pM: 39.4% and 32.9%
  % cytotoxicity of CD19+ target cells, FIG. 68B, switch at 10 pM: 63.2% and 68.1%
  % cytotoxicity of CD19+ target cells, FIG. 68B, switch at 100 pM: 69.4% and 61.2%
  % cytotoxicity of CD19+ target cells, FIG. 68B, switch at 1000 pM: 72.5% and 63.6%
  % cytotoxicity of CD19+ target cells, FIG. 68B, switch at 10000 pM: 69.1% and 66.8%

## anti-CD19 AB-FITC switch (anti-CD19 Fab, clone FMC63, FITC conjugated at light chain glycine 68 and heavy chain serine 74)
[2]
  % cytotoxicity, anti-FITC CAR-T + NALM-6 + 10 pM AB-FITC, with 0 nM free fluorescein: 54.8%
  % cytotoxicity, anti-FITC CAR-T + NALM-6 + 10 pM AB-FITC, with 1 nM free fluorescein: 57.1% and 58.1%
  % cytotoxicity, anti-FITC CAR-T + NALM-6 + 10 pM AB-FITC, with 10 nM free fluorescein: 56.2% and 56%
  % cytotoxicity, anti-FITC CAR-T + NALM-6 + 10 pM AB-FITC, with 100 nM free fluorescein: 55.7%
  % cytotoxicity, anti-FITC CAR-T + NALM-6 + 10 pM AB-FITC, with 1000 nM free fluorescein: 50.4% and 50.9%
  % cytotoxicity, anti-FITC CAR-T + NALM-6 + 10 pM AB-FITC, with 10000 nM free fluorescein: 27.4% and 31.6%

— patent US20180100026A1
